{"source": "patent US20240108738A1", "about": "(Bicycle, published 2024)", "key": {"[1]": {"biological_target": "T1, Human NKp46 Fc tag (Acro Biosystems, NC1-H5257) (human, UniProt O76036 22-255)", "T1 construct": "bought; also called Fc-tagged human NKp46", "T1 sequence (O76036 22-255 limits assumed)": "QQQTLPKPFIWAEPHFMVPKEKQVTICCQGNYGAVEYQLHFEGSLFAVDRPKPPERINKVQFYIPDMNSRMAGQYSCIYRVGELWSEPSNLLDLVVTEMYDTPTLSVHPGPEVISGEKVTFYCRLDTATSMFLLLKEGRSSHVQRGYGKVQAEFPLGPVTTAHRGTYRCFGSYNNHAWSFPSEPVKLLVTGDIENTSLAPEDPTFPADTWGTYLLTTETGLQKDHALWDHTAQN", "assay": "SPR Method 1 and/or 2", "procedure,_shortened": "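Fc-tagged human NKp46 captured on anti-human IgG surface (500–1000 RU); compounds run in PBS-P+ with 2% DMSO at 25 °C, 50 μL/min, 60 s association, 400 s dissociation. Double-referenced, DMSO-corrected; KD from steady-state 1:1 fit, kinetic constants from kinetic 1:1 fit where appropriate.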"}, "[2]": {"biological_target": "T2, Human NKp46 His tag (Acro Biosystems, NC1-H52H4) (human, UniProt O76036 22-255)", "T2 construct": "bought; also called human NKp46-his tagged protein", "T2 sequence (O76036 22-255 limits assumed)": "as above", "assay": "FP competition vs BCY15035", "method": "The untagged competitor peptides were diluted in assay buffer 25 mM HEPES, 100 mM NaCl, 0.01% P20, pH 7.4. to a top concentration of 5000 nM and diluted 2-fold in 11 steps. The human NKp46-his tagged protein (AcroBiosystems) was diluted to 40 nM final concentration in the assay. […] The total volume of 25 μL was prepared in black walled and flat-bottomed low binding low volume 384 well plates. Measurements were performed using Envision (PerkinElmer) equipped with the excitation filter FITC FP 480, emission filter FITC FP P-pol 535 and 2nd emission filter FITC FP S-pol 535 and set to 30 flashes. The gain was set in a well containing tracer alone without target protein."}}, "note": "Numbered stars: 1 amine (or outer) side, 2 acyl side, 3 side chain; on linkers, the order of the positions; unused ones are H or OH. Bridge positions count the residues as written; N and C are the ends. Square brackets hold non-standard residues; d marks the D form. Ends that are not written are not given here. * marks the point of attachment. 4MeOPhe = 4-methoxy-phenylalanine, COc1ccc(C[C@H](N[*:1])C(=O)[*:2])cc1; TATA = O=C(CC[*:1])N1CN(C(=O)CC[*:2])CN(C(=O)CC[*:3])C1; Phe(4-F) = N[C@@H](Cc1ccc(F)cc1)C(=O)O; 1Nal = N[C@@H](Cc1cccc2ccccc12)C(=O)O; 2Nal = N[C@@H](Cc1ccc2ccccc2c1)C(=O)O; Ala(cPent) = N[C@@H](CC1CCCC1)C(=O)O; aIle = CC[C@@H](C)[C@H](N)C(=O)O; tBuAla = CC(C)(C)C[C@H](N)C(=O)O; Cba = N[C@@H](CC1CCC1)C(=O)O; Pent4ynoyl = C#CCCC(=O)*; Aib = CC(C)(N)C(=O)O"}
{"binder": "ACNLQKPCMKYPCA-NH2 (linker 2-8-13 via TATA; also: scaffold TATA, TATB or TBMT, scaffold TATA)", "note": "[BCY14456]", "values": [{"measurement": "Kd", "setting": "[1]", "result": 703, "unit": "nM"}]}
{"binder": "ACNLQLHNCIWGVCA-NH2 (linker 2-9-14 via TATA; also: scaffold TATA, TATB or TBMT, scaffold TATA)", "note": "[BCY15109]", "values": [{"measurement": "Kd", "setting": "[1]", "result": 274, "unit": "nM"}]}
{"binder": "ACYLPD[1Nal]LCGDEYCA-NH2 (linker 2-9-14 via TATA; N-terminus assumed; SMILES CC(C)C[C@@H]1NC(=O)[C@H](Cc2cccc3ccccc23)NC(=O)[C@H](CC(=O)O)NC(=O)[C@@H]2CCCN2C(=O)[C@H](CC(C)C)NC(=O)[C@H](Cc2ccc(O)cc2)NC(=O)[C@@H](NC(=O)[C@H](C)N)CSCCC(=O)N2CN3CN(C2)C(=O)CCSC[C@@H](C(=O)N[C@@H](C)C(N)=O)NC(=O)[C@H](Cc2ccc(O)cc2)NC(=O)[C@H](CCC(=O)O)NC(=O)[C@H](CC(=O)O)NC(=O)CNC(=O)[C@H](CSCCC3=O)NC1=O, scaffold TATA)", "note": "[BCY15643]", "values": [{"measurement": "Ki", "setting": "[2]", "result": 755, "unit": "nM"}]}
{"binder": "ACK(Pent4ynoyl)LPDYLCGDEYCA-NH2 (linker 2-9-14 via TATA; N-terminus assumed; SMILES C#CCCC(=O)NCCCC[C@@H]1NC(=O)[C@@H](NC(=O)[C@H](C)N)CSCCC(=O)N2CN3CN(C2)C(=O)CCSC[C@@H](C(=O)N[C@@H](C)C(N)=O)NC(=O)[C@H](Cc2ccc(O)cc2)NC(=O)[C@H](CCC(=O)O)NC(=O)[C@H](CC(=O)O)NC(=O)CNC(=O)[C@H](CSCCC3=O)NC(=O)[C@H](CC(C)C)NC(=O)[C@H](Cc2ccc(O)cc2)NC(=O)[C@H](CC(=O)O)NC(=O)[C@@H]2CCCN2C(=O)[C@H](CC(C)C)NC1=O, scaffold TATA)", "note": "[BCY16834]", "values": [{"measurement": "Kd", "setting": "[1]", "result": 83, "unit": "nM"}]}
{"binder": "CYLPDYLCGDEYC-NH2 (linker 1-8-13 via TATA; also: scaffold TATA, TATB or TBMT, scaffold TATA)", "note": "[BCY15633]", "values": [{"measurement": "Ki", "setting": "[2]", "result": 86, "unit": "nM"}]}
{"binder": "ACDLTTHNCQWG[aIle]CA-NH2 (linker 2-9-14 via TATA, scaffold TATA)", "note": "[BCY19735]", "values": [{"measurement": "Kd", "setting": "[1]", "result": 460, "unit": "nM"}]}
{"binder": "ACY[Ala(cPent)]PDYLCGDEYCA-NH2 (linker 2-9-14 via TATA, scaffold TATA)", "note": "[BCY16130]", "values": [{"measurement": "Ki", "setting": "[2]", "result": 321, "unit": "nM"}]}
{"binder": "Ac-ACYLPDYLCGDEYCA-NH2 (linker 2-9-14 via TATA, scaffold TATA)", "note": "[BCY15635]", "values": [{"measurement": "Ki", "setting": "[2]", "result": 61, "unit": "nM"}]}
{"binder": "ACYLPDW[tBuAla]CGDEYCA-NH2 (linker 2-9-14 via TATA; N-terminus assumed; SMILES CC(C)C[C@@H]1NC(=O)[C@H](Cc2ccc(O)cc2)NC(=O)[C@@H](NC(=O)[C@H](C)N)CSCCC(=O)N2CN3CN(C2)C(=O)CCSC[C@@H](C(=O)N[C@@H](C)C(N)=O)NC(=O)[C@H](Cc2ccc(O)cc2)NC(=O)[C@H](CCC(=O)O)NC(=O)[C@H](CC(=O)O)NC(=O)CNC(=O)[C@H](CSCCC3=O)NC(=O)[C@H](CC(C)(C)C)NC(=O)[C@H](Cc2c[nH]c3ccccc23)NC(=O)[C@H](CC(=O)O)NC(=O)[C@@H]2CCCN2C1=O, scaffold TATA)", "note": "[BCY15648]", "values": [{"measurement": "Ki", "setting": "[2]", "result": 1620, "unit": "nM"}]}
{"binder": "Ac-CYLPDYLCGDEYC-NH2 (linker 1-8-13 via TATA; not fully specified, scaffold TATA)", "note": "[BCY15634]", "values": [{"measurement": "Ki", "setting": "[2]", "result": 98, "unit": "nM"}]}
{"binder": "ACYL[Aib]DYLCGDEYCA-NH2 (linker 2-9-14 via TATA, scaffold TATA)", "note": "[BCY15642]", "values": [{"measurement": "Ki", "setting": "[2]", "result": 910, "unit": "nM"}]}
{"binder": "ACYLPDW[Cba]CGDEYCA-NH2 (linker 2-9-14 via TATA, scaffold TATA)", "note": "[BCY15649]", "values": [{"measurement": "Ki", "setting": "[2]", "result": 391, "unit": "nM"}]}
{"binder": "ACYLPD[2Nal]LCGDEYCA-NH2 (linker 2-9-14 via TATA; N-terminus assumed; SMILES CC(C)C[C@@H]1NC(=O)[C@H](Cc2ccc3ccccc3c2)NC(=O)[C@H](CC(=O)O)NC(=O)[C@@H]2CCCN2C(=O)[C@H](CC(C)C)NC(=O)[C@H](Cc2ccc(O)cc2)NC(=O)[C@@H](NC(=O)[C@H](C)N)CSCCC(=O)N2CN3CN(C2)C(=O)CCSC[C@@H](C(=O)N[C@@H](C)C(N)=O)NC(=O)[C@H](Cc2ccc(O)cc2)NC(=O)[C@H](CCC(=O)O)NC(=O)[C@H](CC(=O)O)NC(=O)CNC(=O)[C@H](CSCCC3=O)NC1=O, scaffold TATA)", "note": "[BCY15644]", "values": [{"measurement": "Ki", "setting": "[2]", "result": 159, "unit": "nM"}]}
{"binder": "[dA]CYLPDYLCGDEYC-NH2 (linker 2-9-14 via TATA; N-terminus assumed; SMILES CC(C)C[C@@H]1NC(=O)[C@H](Cc2ccc(O)cc2)NC(=O)[C@H](CC(=O)O)NC(=O)[C@@H]2CCCN2C(=O)[C@H](CC(C)C)NC(=O)[C@H](Cc2ccc(O)cc2)NC(=O)[C@@H](NC(=O)[C@@H](C)N)CSCCC(=O)N2CN3CN(C2)C(=O)CCSC[C@H](NC1=O)C(=O)NCC(=O)N[C@@H](CC(=O)O)C(=O)N[C@@H](CCC(=O)O)C(=O)N[C@@H](Cc1ccc(O)cc1)C(=O)N[C@H](C(N)=O)CSCCC3=O, scaffold TATA)", "note": "[BCY16134]", "values": [{"measurement": "Ki", "setting": "[2]", "result": 77, "unit": "nM"}]}
{"binder": "ACYLPD[4MeOPhe]LCGDEYCA-NH2 (linker 2-9-14 via TATA; N-terminus assumed; SMILES COc1ccc(C[C@@H]2NC(=O)[C@H](CC(=O)O)NC(=O)[C@@H]3CCCN3C(=O)[C@H](CC(C)C)NC(=O)[C@H](Cc3ccc(O)cc3)NC(=O)[C@@H](NC(=O)[C@H](C)N)CSCCC(=O)N3CN4CN(C3)C(=O)CCSC[C@@H](C(=O)N[C@@H](C)C(N)=O)NC(=O)[C@H](Cc3ccc(O)cc3)NC(=O)[C@H](CCC(=O)O)NC(=O)[C@H](CC(=O)O)NC(=O)CNC(=O)[C@H](CSCCC4=O)NC(=O)[C@H](CC(C)C)NC2=O)cc1, scaffold TATA)", "note": "[BCY16136]", "values": [{"measurement": "Ki", "setting": "[2]", "result": 269, "unit": "nM"}]}
{"binder": "ACYLPD[Phe(4-F)]LCGDEYCA-NH2 (linker 2-9-14 via TATA; N-terminus assumed; SMILES CC(C)C[C@@H]1NC(=O)[C@H](Cc2ccc(F)cc2)NC(=O)[C@H](CC(=O)O)NC(=O)[C@@H]2CCCN2C(=O)[C@H](CC(C)C)NC(=O)[C@H](Cc2ccc(O)cc2)NC(=O)[C@@H](NC(=O)[C@H](C)N)CSCCC(=O)N2CN3CN(C2)C(=O)CCSC[C@@H](C(=O)N[C@@H](C)C(N)=O)NC(=O)[C@H](Cc2ccc(O)cc2)NC(=O)[C@H](CCC(=O)O)NC(=O)[C@H](CC(=O)O)NC(=O)CNC(=O)[C@H](CSCCC3=O)NC1=O, scaffold TATA)", "note": "[BCY16135]", "values": [{"measurement": "Ki", "setting": "[2]", "result": 639, "unit": "nM"}]}
{"binder": "ACYLPDYLCGDEYCA-NH2 (linker 2-9-14 via TATA; also: scaffold TATA, TATB or TBMT, scaffold TATA)", "note": "[BCY15100]", "values": [{"measurement": "Ki", "setting": "[2]", "result": 49, "unit": "nM"}]}
{"binder": "ACYLPDYLCGDEACA-NH2 (linker 2-9-14 via TATA; also: cyclised with TATA, TATB or TBMT, scaffold TATA)", "note": "[BCY15662]", "values": [{"measurement": "Ki", "setting": "[2]", "result": 672, "unit": "nM"}]}
{"binder": "ACYLADYLCGDEYCA-NH2 (linker 2-9-14 via TATA; also: cyclised with TATA, TATB or TBMT, scaffold TATA)", "note": "[BCY15655]", "values": [{"measurement": "Ki", "setting": "[2]", "result": 324, "unit": "nM"}]}
{"binder": "ACYLPDYLCGDAYCA-NH2 (linker 2-9-14 via TATA; also: cyclised with TATA, TATB or TBMT, scaffold TATA)", "note": "[BCY15661]", "values": [{"measurement": "Ki", "setting": "[2]", "result": 1780, "unit": "nM"}]}
{"binder": "ACALPDYLCGDEYCA-NH2 (linker 2-9-14 via TATA; also: cyclised with TATA, TATB or TBMT, scaffold TATA)", "note": "[BCY15653]", "values": [{"measurement": "Ki", "setting": "[2]", "result": 411, "unit": "nM"}]}
{"binder": "ACYLPDYLCADEYCA-NH2 (linker 2-9-14 via TATA; also: cyclised with TATA, TATB or TBMT, scaffold TATA)", "note": "[BCY15659]", "values": [{"measurement": "Ki", "setting": "[2]", "result": 226, "unit": "nM"}]}
{"binder": "Ac-CY[Cba]PDYLC[dA]DEYCK(Pent4ynoyl)-NH2 (linker 1-8-13 via TATA; SMILES C#CCCC(=O)NCCCC[C@H](NC(=O)[C@@H]1CSCCC(=O)N2CN3CN(C2)C(=O)CCSC[C@H](NC(=O)[C@H](CC(C)C)NC(=O)[C@H](Cc2ccc(O)cc2)NC(=O)[C@H](CC(=O)O)NC(=O)[C@@H]2CCCN2C(=O)[C@H](CC2CCC2)NC(=O)[C@H](Cc2ccc(O)cc2)NC(=O)[C@@H](NC(C)=O)CSCCC3=O)C(=O)N[C@H](C)C(=O)N[C@@H](CC(=O)O)C(=O)N[C@@H](CCC(=O)O)C(=O)N[C@@H](Cc2ccc(O)cc2)C(=O)N1)C(N)=O, scaffold TATA)", "note": "[BCY17224]", "values": [{"measurement": "Kd", "setting": "[1]", "result": 3.5, "unit": "nM"}]}
{"binder": "ACNLQLHNCQWGICA-NH2 (linker 2-9-14 via TATA; also: scaffold TATA, TATB or TBMT, scaffold TATA)", "note": "[BCY15568]", "values": [{"measurement": "Kd", "setting": "[1]", "result": 69, "unit": "nM"}]}
{"binder": "ACDLTTHNCLWGVCA-NH2 (linker 2-9-14 via TATA; also: scaffold TATA, TATB or TBMT, scaffold TATA)", "note": "[BCY15108]", "values": [{"measurement": "Kd", "setting": "[1]", "result": 642, "unit": "nM"}]}
